Tested on: Renilla luciferase RNA
Experiment: Barcoded aptazyme variant library screen: un-cleaved Renilla luciferase RNA by barcode read counts, HEK293-T cells
Assay type: cell-based
Settings: un-cleaved Renilla luciferase RNA, HEK293-T cells cultured with 1 mM theophylline (ON) over without theophylline (OFF); barcode read counts, triplicate
Source text: Based on the findings from Example 1, an aptazyme variant library was generated from the T3H48 ribozyme with one of seven variant theophylline aptamers inserted sequentially after each nucleotide of the DNA sequence encoding the T3H48 ribozyme sequence. […] The seven variant theophylline aptamers vary in their communication channels, which are the ribonucleotides of the aptamer that attach to the ribozyme sequence (see, Table 2).
The library was barcoded with unique sequences of nine nucleotides flanked by forward and reverse primer amplification sequences.
The aptazyme library was then PCR amplified and cloned into the psiCHECK™-2 dual luciferase vector in the 3′ UTR of the Renilla luciferase gene. […] The next day, the cells were isolated followed by DNA and RNA extraction using standard methods. The purified RNA was then converted to cDNA and the barcoded portion of the aptazyme library was PCR amplified. Similarly, the DNA was PCR amplified and all the samples were sequenced. All experimental conditions (with theophylline and without theophylline) were performed in triplicate. The read count for each barcode was determined with a custom build code and the data was normalized to identify the un-cleaved fractions of the Renilla luciferase RNA from cells that were cultured in the presence or absence of theophylline for each aptazyme, which was used to obtain the fold-change between ON- and OFF-states (FIG. 2).

Molecule | Fold change in RNA expression between the ON state and the OFF state
RA002 (nucleic acid, expressed or natural sequence) DNA: GCGCGTCCTGGATTCGCGGAAACGCGTACATCCAGCTGACGAGTCCCAAATAGGACGAAACGAGAATACCAGCATCGTCTTGATGCCCTTGGAAGTCTCGCGCGC | >6 fold
RA289 (nucleic acid, expressed or natural sequence) DNA: GCGCGTCCTGGATTCGCGGAAACGCGTACATCCAGGAATACCAGCATCGTCTTGATGCCCTTGGAAGTCCGCTGACGAGTCCCAAATAGGACGAAACGCGC | 1.0 fold
RA285 (nucleic acid, expressed or natural sequence) DNA: GCGCGTCCTGGATTCGCGGAAACGCAGTGATACCAGCATCGTCTTGATGCCCTTGGCAGCACTGTACATCCAGCTGACGAGTCCCAAATAGGACGAAACGCGC | 1.0 fold
RA290 (nucleic acid, expressed or natural sequence) DNA: GCGCGTCCTGGATTCGCGGAAACGCGTACATCCAGCTGACGACCGGAATACCAGCATCGTCTTGATGCCCTTGGAAGTCCGGGTCCCAAATAGGACGAAACGCGC | 1.0 fold
RA279 (nucleic acid, expressed or natural sequence) DNA: GCGCGTCCTGGATTCGCGGAAACGCGTACATCCAGCTGACGAGTCCCAAATAGGACGACGAGAATACCAGCATCGTCTTGATGCCCTTGGAAGTCTCGAACGCGC | 1.0 fold
RA282 (nucleic acid, expressed or natural sequence) DNA: GCGCGTCCTGGATTCGCGAGAATACCAGCATCGTCTTGATGCCCTTGGAAGTCTCGCGGAAACGCGTACATCCAGCTGACGAGTCCCAAATAGGACGAAACGCGC | 1.0 fold
RA277 (nucleic acid, expressed or natural sequence) DNA: GCGCGTCCTGGATTCGCGGAAACGCGTACATCCGAGAATACCAGCATCGTCTTGATGCCCTTGGAAGTCTCAGCTGACGAGTCCCAAATAGGACGAAACGCGC | 1.0 fold
RA288 (nucleic acid, expressed or natural sequence) DNA: GCGCGTCCTGGATTCGCGGAAACGCGTACATCCAGCTGACGAGTCCCAAATAAGTGATACCAGCATCGTCTTGATGCCCTTGGCAGCACTGGACGAAACGCGC | 1.0 fold
RA275 (nucleic acid, expressed or natural sequence) DNA: GCGCGTCCTGGATTGAGAATACCAGCATCGTCTTGATGCCCTTGGAAGTCTCCGCGGAAACGCGTACATCCAGCTGACGAGTCCCAAATAGGACGAAACGCGC | 1.0 fold
RA292 (nucleic acid, expressed or natural sequence) DNA: GCGCGTCGGAATACCAGCATCGTCTTGATGCCCTTGGAAGTCCGCCTGGATTCGCGGAAACGCGTACATCCAGCTGACGAGTCCCAAATAGGACGAAACGCGC | 1.0 fold
RA278 (nucleic acid, expressed or natural sequence) DNA: GCGCGTCCTGGATTCGAGTGATACCAGCATCGTCTTGATGCCCTTGGCAGCACTCGGAAACGCGTACATCCAGCTGACGAGTCCCAAATAGGACGAAACGCGC | 1.0 fold
RA287 (nucleic acid, expressed or natural sequence) DNA: GCGCGTCCTGGATTCGCGGAAACGCGTACATCCAGCTGACGAAGTGATACCAGCATCGTCTTGATGCCCTTGGCAGCACTGTCCCAAATAGGACGAAACGCGC | 1.0 fold
RA028 (nucleic acid, expressed or natural sequence) DNA: GCGCGTCCTGGATTCGCGGAAACGCGTACATCCAGCTGACGACGGAATACCAGCATCGTCTTGATGCCCTTGGAAGTCCGGTCCCAAATAGGACGAAACGCGC | 2.3 fold
RA281 (nucleic acid, expressed or natural sequence) DNA: GCGCGTCCTGGATTCGCGGAAACGCGTACATCCAGCTGACGAGTCCCAAATACGAGAATACCAGCATCGTCTTGATGCCCTTGGAAGTCTCGGGACGAAACGCGC | 1.0 fold
RA291 (nucleic acid, expressed or natural sequence) DNA: GCTGTCACCGGAATACCAGCATCGTCTTGATGCCCTTGGAAGTCCGGTCTGATGAGTCCCATAAGGACGAAACAGC | 1.0 fold
RA286 (nucleic acid, expressed or natural sequence) DNA: GCGCGTCCTGGATTCGCGGAAAAGAATACCAGCATCGTCTTGATGCCCTTGGAAGTCTCGCGTACATCCAGCTGACGAGTCCCAAATAGGACGAAACGCGC | 1.0 fold
RA027 (nucleic acid, expressed or natural sequence) DNA: GCGCGTCCTGGATTCGCGGAAACGCGTACAGTGATACCAGCATCGTCTTGATGCCCTTGGCAGCACTATCCAGCTGACGAGTCCCAAATAGGACGAAACGCGC | 2.4 fold
RA284 (nucleic acid, expressed or natural sequence) DNA: GCGCGTCCTGGATTCGCGGAAACGGAATACCAGCATCGTCTTGATGCCCTTGGAAGTCCGCGTACATCCAGCTGACGAGTCCCAAATAGGACGAAACGCGC | 1.0 fold
RA283 (nucleic acid, expressed or natural sequence) DNA: GCGCGTCCTGGAAGAATACCAGCATCGTCTTGATGCCCTTGGAAGTCTTTCGCGGAAACGCGTACATCCAGCTGACGAGTCCCAAATAGGACGAAACGCGC | 1.0 fold
RA280 (nucleic acid, expressed or natural sequence) DNA: GCGCGTCCTGGATTCGCGGAAACGCGTACATCCAGCTGACGAGTCCCAAATAGGAGGAATACCAGCATCGTCTTGATGCCCTTGGAAGTCCCGAAACGCGC | 1.0 fold
RA276 (nucleic acid, expressed or natural sequence) DNA: GCGCGTCCTGGATTCGCGGAAACGCGTACATCCAGCTGACGAAGAATACCAGCATCGTCTTGATGCCCTTGGAAGTCTGTCCCAAATAGGACGAAACGCGC | 1.0 fold
